For two substances, Km, kcat and kcat/Km results are on record in publication PMC12051055, “Spectroscopy and crystallography define carotenoid oxygenases as a new subclass of mononuclear non-heme Fe^II enzymes” (The Journal of Biological Chemistry, 2025).

Data set [1] has as its system Oc1cc(O)cc(/C=C/c2ccc(O)c(O)c2)c1. As to the kind of experiment: X-ray crystal structure of complex, MCD; the value is the apparent Km from steady-state kinetics. It is filed as biochemical, Neurospora crassa. As to conditions: Fe(II) active site.
Data set [2] concerns CC=Cc1ccc(O)c(OC)c1. As to the kind of experiment: steady-state kinetics of cleavage to vanillin by purified enzyme (apparent Km). Type of data set: biochemical, Neurospora crassa. As to conditions: Fe(II).
Where [3] appears, read: ~[…]° rotation of the β-ring toward the vacancy left from the absent Thr side chain.
[4] abbreviates: β-ring rotated ~[…]° away from the Val151 side chain.

As a reminder, the Km is the concentration of substrate that gives half-maximal velocity. What is called kcat is the maximal rate divided by the concentration of active sites. One may read the kcat/Km as the turnover number divided by the Michaelis constant.

As for “CAO1 (Neurospora crassa carotenoid oxygenase 1) (Neurospora crassa OR74A; T151G)”, in data set [1] (rotation of the β-ring toward the vacancy left from the absent Thr side chain), the Km is 0.110 ± 0.013 µM. In data set [1] (setting [3]), the kcat came to 0.089 ± 0.003 s⁻¹ and the catalytic efficiency (kcat/Km) was 810000 ± 100000 M⁻¹ s⁻¹.
For the substance “CAO1 (Neurospora crassa carotenoid oxygenase 1) (Neurospora crassa OR74A; T151V)”, the Km in data set [2] stood at 93.92 ± 12.27 µM. Further, in data set [1] (β-ring rotated away from the Val151 side chain), the Km came out at 0.027 ± 0.003 µM. In data set [1] (setting [4]), the kcat turned out to be 1.04 ± 0.024 s⁻¹ and the kcat/Km is 3.87e+07 ± 4.42e+06 M⁻¹ s⁻¹.
